B1: ESF1 (protein, UniProt Q9H501 2-851, looked up)
ESF1 homolog: SSKQEIMSDQRFRRVAKDPRFWEMPEKDRKVKIDKRFRAMFHDKKFKLNYAVDKRGRPISHSTTEDLKRFYDLSDSDSNLSGEDSKALSQKKIKKKKTQTKKEIDSKNLVEKKKETKKANHKGSENKTDLDNSIGIKKMKTSCKFKIDSNISPKKDSKEFTQKNKKEKKNIVQHTTDSSLEEKQRTLDSGTSEIVKSPRIECSKTRREMQSVVQLIMTRDSDGYENSTDGEMCDKDALEEDSESVSEIGSDEESENEITSVGRASGDDDGSEDDEEEDEDEEEDEDEDSEDDDKSDSGPDLARGKGNIETSSEDEDDTADLFPEESGFEHAWRELDKDAPRADEITRRLAVCNMDWDRLKAKDLLALFNSFKPKGGVIFSVKIYPSEFGKERMKEEQVQGPVELLSIPEDAPEKDWTSREKLRDYQFKRLKYYYAVVDCDSPETASKIYEDCDGLEFESSCSFIDLRFIPDDITFDDEPKDVASEVNLTAYKPKYFTSAAMGTSTVEITWDETDHERITMLNRKFKKEELLDMDFQAYLASSSEDEEEIEEELQGDDGVNVEEDGKTKKSQKDDEEQIAKYRQLLQVIQEKEKKGKENDMEMEIKWVPGLKESAEEMVKNKLEGKDKLTPWEQFLEKKKEKKRLKRKQKALAEEASEEELPSDVDLNDPYFAEEVKQIGINKKSVKSAKDGTSPEEEIEIERQKAEMALLMMDEDEDSKKHFNYNKIVEHQNLSKKKKKQLMKKKELIEDDFEVNVNDARFQAMYTSHLFNLDPSDPNFKKTKAMEKILEEKARQRERKEQELTQAIKKKESEIEKESQRKSIDPALSMLIKSIKTKTEQFQARKKQKVK
B2: WDR83 (protein, UniProt Q9BRX9 1-315, looked up)
WD repeat domain-containing …: MAFPEPKPRPPELPQKRLKTLDCGQGAVRAVRFNVDGNYCLTCGSDKTLKLWNPLRGTLLRTYSGHGYEVLDAAGSFDNSSLCSGGGDKAVVLWDVASGQVVRKFRGHAGKVNTVQFNEEATVILSGSIDSSIRCWDCRSRRPEPVQTLDEARDGVSSVKVSDHEILAGSVDGRVRRYDLRMGQLFSDYVGSPITCTCFSRDGQCTLVSSLDSTLRLLDKDTGELLGEYKGHKNQEYKLDCCLSERDTHVVSCSEDGKVFFWDLVEGALALALPVGSGVVQSLAYHPTEPCLLTAMGGSVQCWREEAYEAEDGAG
B3: WDR70 (protein, UniProt Q9NW82 1-654, looked up)
WD repeat-containing protein …: MERSGPSEVTGSDASGPDPQLAVTMGFTGFGKKARTFDLEAMFEQTRRTAVERSRKTLEAREKEEEMNREKELRRQNEDIEPTSSRSNVVRDCSKSSSRDTSSSESEQSSDSSDDELIGPPLPPKMVGKPVNFMEEDILGPLPPPLNEEEEEAEEEEEEEEEEENPVHKIPDSHEITLKHGTKTVSALGLDPSGARLVTGGYDYDVKFWDFAGMDASFKAFRSLQPCECHQIKSLQYSNTGDMILVVSGSSQAKVIDRDGFEVMECIKGDQYIVDMANTKGHTAMLHTGSWHPKIKGEFMTCSNDATVRTWEVENPKKQKSVFKPRTMQGKKVIPTTCTYSRDGNLIAAACQNGSIQIWDRNLTVHPKFHYKQAHDSGTDTSCVTFSYDGNVLASRGGDDSLKLWDIRQFNKPLFSASGLPTMFPMTDCCFSPDDKLIVTGTSIQRGCGSGKLVFFERRTFQRVYEIDITDASVVRCLWHPKLNQIMVGTGNGLAKVYYDPNKSQRGAKLCVVKTQRKAKQAETLTQDYIITPHALPMFREPRQRSTRKQLEKDRLDPLKSHKPEPPVAGPGRGGRVGTHGGTLSSYIVKNIALDKTDDSNPREAILRHAKAAEDSPYWVSPAYSKTQPKTMFAQVESDDEEAKNEPEWKKRKI
B4: NACC1 (protein, UniProt Q96RE7 1-527, looked up)
Nucleus accumbens-associated …: MAQTLQMEIPNFGNSILECLNEQRLQGLYCDVSVVVKGHAFKAHRAVLAASSSYFRDLFNNSRSAVVELPAAVQPQSFQQILSFCYTGRLSMNVGDQFLLMYTAGFLQIQEIMEKGTEFFLKVSSPSCDSQGLHAEEAPSSEPQSPVAQTSGWPACSTPLPLVSRVKTEQQESDSVQCMPVAKRLWDSGQKEAGGGGNGSRKMAKFSTPDLAANRPHQPPPPQQAPVVAAAQPAVAAGAGQPAGGVAAAGGVVSGPSTSERTSPGTSSAYTSDSPGSYHNEEDEEEDGGEEGMDEQYRQICNMYTMYSMMNVGQTAEKVEALPEQVAPESRNRIRVRQDLASLPAELINQIGNRCHPKLYDEGDPSEKLELVTGTNVYITRAQLMNCHVSAGTRHKVLLRRLLASFFDRNTLANSCGTGIRSSTNDPRRKPLDSRVLHAVKYYCQNFAPNFKESEMNAIAADMCTNARRVVRKSWMPKVKVLKAEDDAYTTFISETGKIEPDMMGVEHGFETASHEGEAGPSAEALQ
B5: PPP1R10 (protein, UniProt Q96QC0 1-940, looked up)
Serine/threonine-protein …: MGSGPIDPKELLKGLDSFLNRDGEVKSVDGISKIFSLMKEARKMVSRCTYLNILLQTRSPEILVKFIDVGGYKLLNNWLTYSKTTNNIPLLQQILLTLQHLPLTVDHLKQNNTAKLVKQLSKSSEDEELRKLASVLVSDWMAVIRSQSSTQPAEKDKKKRKDEGKSRTTLPERPLTEVKAETRAEEAPEKKREKPKSLRTTAPSHAKFRSTGLELETPSLVPVKKNASTVVVSDKYNLKPIPLKRQSNVAAPGDATPPAEKKYKPLNTTPNATKEIKVKIIPPQPMEGLGFLDALNSAPVPGIKIKKKKKVLSPTAAKPSPFEGKTSTEPSTAKPSSPEPAPPSEAMDADRPGTPVPPVEVPELMDTASLEPGALDAKPVESPGDPNQLTRKGRKRKSVTWPEEGKLREYFYFELDETERVNVNKIKDFGEAAKREILSDRHAFETARRLSHDNMEEKVPWVCPRPLVLPSPLVTPGSNSQERYIQAEREKGILQELFLNKESPHEPDPEPYEPIPPKLIPLDEECSMDETPYVETLEPGGSGGSPDGAGGSKLPPVLANLMGSMGAGKGPQGPGGGGINVQEILTSIMGSPNSHPSEELLKQPDYSDKIKQMLVPHGLLGPGPIANGFPPGGPGGPKGMQHFPPGPGGPMPGPHGGPGGPVGPRLLGPPPPPRGGDPFWDGPGDPMRGGPMRGGPGPGPGPYHRGRGGRGGNEPPPPPPPFRGARGGRSGGGPPNGRGGPGGGMVGGGGHRPHEGPGGGMGNSSGHRPHEGPGGGMGSGHRPHEGPGGSMGGGGGHRPHEGPGGGISGGSGHRPHEGPGGGMGAGGGHRPHEGPGGSMGGSGGHRPHEGPGHGGPHGHRPHDVPGHRGHDHRGPPPHEHRGHDGPGHGGGGHRGHDGGHSHGGDMSNRPVCRHFMMKGNCRYENNCAFYHPGVNGPPLP
B6: C19orf43 (protein, UniProt Q9BQ61 1-176, looked up)
Telomerase RNA component …: MAARGRRAEPQGREAPGPAGGGGGGSRWAESGSGTSPESGDEEVSGAGSSPVSGGVNLFANDGSFLELFKRKMEEEQRQRQEEPPPGPQRPDQSAAAAGPGDPKRKGGPGSTLSFVGKRRGGNKLALKTGIVAKKQKTEDEVLTSKGDAWAKYMAEVKKYKAHQCGDDDKTRPLVK
B7: THRAP3 (protein, UniProt Q9Y2W1 2-955, looked up)
Thyroid hormone …: SKTNKSKSGSRSSRSRSASRSRSRSFSKSRSRSRSLSRSRKRRLSSRSRSRSYSPAHNRERNHPRVYQNRDFRGHNRGYRRPYYFRGRNRGFYPWGQYNRGGYGNYRSNWQNYRQAYSPRRGRSRSRSPKRRSPSPRSRSHSRNSDKSSSDRSRRSSSSRSSSNHSRVESSKRKSAKEKKSSSKDSRPSQAAGDNQGDEAKEQTFSGGTSQDTKASESSKPWPDATYGTGSASRASAVSELSPRERSPALKSPLQSVVVRRRSPRPSPVPKPSPPLSSTSQMGSTLPSGAGYQSGTHQGQFDHGSGSLSPSKKSPVGKSPPSTGSTYGSSQKEESAASGGAAYTKRYLEEQKTENGKDKEQKQTNTDKEKIKEKGSFSDTGLGDGKMKSDSFAPKTDSEKPFRGSQSPKRYKLRDDFEKKMADFHKEEMDDQDKDKAKGRKESEFDDEPKFMSKVIGANKNQEEEKSGKWEGLVYAPPGKEKQRKTEELEEESFPERSKKEDRGKRSEGGHRGFVPEKNFRVTAYKAVQEKSSSPPPRKTSESRDKLGAKGDFPTGKSSFSITREAQVNVRMDSFDEDLARPSGLLAQERKLCRDLVHSNKKEQEFRSIFQHIQSAQSQRSPSELFAQHIVTIVHHVKEHHFGSSGMTLHERFTKYLKRGTEQEAAKNKKSPEIHRRIDISPSTFRKHGLAHDEMKSPREPGYKAEGKYKDDPVDLRLDIERRKKHKERDLKRGKSRESVDSRDSSHSRERSAEKTEKTHKGSKKQKKHRRARDRSRSSSSSSQSSHSYKAEEYTEETEEREESTTGFDKSRLGTKDFVGPSERGGGRARGTFQFRARGRGWGRGNYSGNNNNNSNNDFQKRNREEEWDPEYTPKSKKYYLHDDREGEGSDKWVSRGRGRGAFPRGRGRFMFRKSSTSPKWAHDKFSGEEGEIEDDESGTENREEKDNIQPTTE

Test system: BirA*-FLAG-GATAD1 variants in Flp-In-293 cells
Assay: BioID proximity labelling of full-length GATAD1 variants (SILAC)
Format: cell-based, human
Conditions: GATAD1 WT vs S102P, significant proteins only; for Log2_Ratio.H.L.normalized.WT_S102P_forward: forward experiment (label swap performed, sign inverted against the H/L ratio); for Log2_Ratio.H.L.normalized.WT_S102P_forward / Log2_Ratio.H.L.normalized.WT_S102P_reverse: log2 of normalized H/L ratio; for Ratio.H.L.normalized.WT_S102P_forward: forward experiment; for Log2_Ratio.H.L.normalized.WT_S102P_reverse / Ratio.H.L.normalized.WT_S102P_reverse: reverse experiment
Procedure, shortened: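 Tetracycline-inducible Flp-In-293 T-REx lines expressing N-terminal BirA*-FLAG GATAD1 variants (WT, S102P, S102D, S102A) were SILAC-labelled, induced with 1 μg/mL tetracycline for 24 h and given 50 μM biotin overnight. Streptavidin-enriched proteins were trypsin-digested on-bead and analysed by LC-MS/MS. Label-swapped log2 SILAC ratios beyond ±1 defined differential proteins (n = 2).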

| Molecule | Log2_Ratio.H.L.normalized.WT_S102P_forward | Ratio.H.L.normalized.WT_S102P_forward | Log2_Ratio.H.L.normalized.WT_S102P_reverse | Ratio.H.L.normalized.WT_S102P_reverse |
| --- | --- | --- | --- | --- |
| B1 | 1.318 | 0.401 | 1.077 | 2.1103 |
| B2 | 1.042 | 0.4856 | 1.085 | 2.1217 |
| B3 | 1.547 | 0.3422 | 1.108 | 2.1553 |
| B4 | 1.531 | 0.346 | 1.188 | 2.2785 |
| B5 | 1.288 | 0.4096 | 1.038 | 2.0533 |
| B6 | 2.125 | 0.2293 | 1.257 | 2.3903 |
| B7 | 1.318 | 0.4011 | 1.052 | 2.0733 |

Source: article PMC11009412, “Pathogenic mutations of human phosphorylation sites affect protein–protein interactions” (Nature Communications, 2024)
